Assay results: paper PMC3192995

Assays:
Assay in all cases: two-hybrid
[1] = molecular target: PwHAP5 C130, residues 92-221, fused in pGBKT7 (yeast two-hybrid bait) (Picea wilsonii)
[2] = molecular target: PwHAP5, full-length coding region, fused in pGBKT7 (yeast two-hybrid bait) (Picea wilsonii)
[3] = molecular target: PwHAP5 N77, residues 1-77, fused in pGBKT7 (yeast two-hybrid bait) (Picea wilsonii)

Measured: fold beta-galactosidase activity over the controls

PwFKBP12 in pGADT7-Rec (yeast two-hybrid prey) (natural protein)
20 fold: all assays above
